According to patent publication US20220073608A1 (JIANGSU HUAIYU PHARMACEUTICAL, published 2022):

T1: hSEMA4D ECD-His (His-tagged human SEMA4D protein extracellular domain, Met22-Arg734) (human, UniProt Q92854 22-734)
T1 construct: Expressed in CHO-S cells, purified on Ni column; also called protein immunogen; immunogen A; not shown: His tag of the pCP vector
T1 sequence: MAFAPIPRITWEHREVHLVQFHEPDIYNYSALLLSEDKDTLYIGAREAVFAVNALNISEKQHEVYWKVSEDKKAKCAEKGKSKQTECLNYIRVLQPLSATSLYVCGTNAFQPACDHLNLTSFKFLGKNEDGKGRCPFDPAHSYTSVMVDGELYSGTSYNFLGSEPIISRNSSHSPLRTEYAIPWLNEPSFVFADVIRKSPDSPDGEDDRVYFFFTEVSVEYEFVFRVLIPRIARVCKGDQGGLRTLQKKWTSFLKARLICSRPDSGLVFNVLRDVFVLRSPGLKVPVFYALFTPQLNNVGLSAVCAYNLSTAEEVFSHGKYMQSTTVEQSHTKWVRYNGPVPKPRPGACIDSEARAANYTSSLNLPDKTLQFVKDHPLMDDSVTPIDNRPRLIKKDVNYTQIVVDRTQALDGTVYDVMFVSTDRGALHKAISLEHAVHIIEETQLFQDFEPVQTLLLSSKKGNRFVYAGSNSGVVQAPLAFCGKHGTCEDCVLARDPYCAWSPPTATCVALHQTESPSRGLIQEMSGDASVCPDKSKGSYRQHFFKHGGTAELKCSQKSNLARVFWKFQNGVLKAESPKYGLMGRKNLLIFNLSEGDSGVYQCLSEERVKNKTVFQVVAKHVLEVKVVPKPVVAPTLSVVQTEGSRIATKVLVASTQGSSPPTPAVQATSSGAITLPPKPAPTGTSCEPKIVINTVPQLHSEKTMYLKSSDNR


Biological target: T1, hSEMA4D ECD-His (His-tagged human …)
Test: SPR (Biacore), antibody captured on anti-human Fc CM5 chip, hSEMA4D ECD-His 100 nM as analyte, 1:1 fit
Procedure: The anti-human Fc IgG (purchased from Geneway) was coupled and immobilized on the surface of the CM5 chip (purchased from GE) by the amino coupling method, and FC1 was used as the reference channel. The coupling and immobilization process was as follows: the freshly prepared mixture of 50 mM N-hydroxysuccinimide (NHS) and 200 mM 1-(3-dimethylaminopropyl)-3-ethylcarbodiimide hydrochloride (EDC) with a molar ratio of […] was used to activate the chip. Then 10-50 μg/mL anti-human Fc IgG diluted in 10 mM sodium acetate buffer (pH 5.0) was injected. The remaining activated sites were blocked with 1M ethanolamine. Then, buffer containing HBS-EP was used to dilute the 2D5-b1-3D9 antibody prepared to 5 ug/ml and the antibodies were captured on the chip at a flow rate of 10 ul/min to obtain a response value of about 100-300RU. Then, the purified hSEMA4D ECD-His was diluted to 100 nM and let flow across the chip surface at a flow rate of 30 μL/min. At the end of each cycle, the chip surface was regenerated with 10 mM Glycine at pH 1.5. The kinetic rate constant needed to be subtracted from the blank control, and the data was fitted with the global fit analysis method 1:1 combined with the model (see the Biacore operation manual for operation). The dissociation equilibrium rate constant (KD) was calculated according to the following formula: KD=kd/ka, wherein Kd is the dissociation constant and Ka is the binding constant.

Kd	koff	kon	Binder
2.01 nM	0.00103 s⁻¹	511000 M⁻¹ s⁻¹	2D5-b1 (antibody, V domains shown, Framework back-mutated variant of 2D5; the parent 2D5 was human IgG4 (S228P)/lambda; captured by anti-human Fc in the SPR assay) VH: QVTLRESGPALVKPTQTLTLTCTFSGFSLTTTGVAVTWIRQPPGKALEWLALIDWDDDKYYSTSLKTRLTISKDTSKNQVVLTMTNMDPVDTATYYCARIASGDSGGYFADWGQGTLVTVSS VL: SYELTQPPSVSVSPGQTASITCSGDKLDDKYVYWYQQKPGQSPVLVIYRDNKRPSGIPERFSGSNSGNTATLTISGTQAMDEADYYCQAWESSSDQYVFGTGTKVTVL
0.184 nM	0.000107 s⁻¹	583000 M⁻¹ s⁻¹	2D5-b1-3D9 (antibody, human IgG4, V domains shown, also called 2D5-b1-3D9 antibody) VH: QVTLRESGPALVKPTQTLTLTCTFSGFSLTTTGVAVTWIRQPPGKALEWLALIDWDDDKYYSTSLKTRLTISKDTSKNQVVLTMTNMDPVDTATYYCARIASGDSGGYFADWGQGTLVTVSS VL: SYELTQPPSVSVSPGQTASITCSGDKLDDKYVYWYQQKPGQSPVLVIYMDNKRKSGIPERFSGSNSGNTATLTISGTQAMDEADYYCQAWESSSDQYVFGTGTKVTVL
